Results taken from paper PMC10875708 (2024).

B1: Stearoyl-CoA desaturase (SCD1) [human (endogenous in HCT116)] / Sulfotransferase family 2B member 1 (SULT2B1) [human (endogenous in HCT116)] (parent complex)
chain 1: MPAHLLQDDISSSYTTTTTITAPPSRVLQNGGDKLETMPLYLEDDIRPDIKDDIYDPTYKDKEGPSPKVEYVWRNIILMSLLHLGALYGITLIPTCKFYTWLWGVFYYFVSALGITAGAHRLWSHRSYKARLPLRLFLIIANTMAFQNDVYEWARDHRAHHKFSETHADPHNSRRGFFFSHVGWLLVRKHPAVKEKGSTLDLSDLEAEKLVMFQRRYYKPGLLMMCFILPTLVPWYFWGETFQNSVFVATFLRYAVVLNATWLVNSAAHLFGYRPYDKNISPRENILVSLGAVGEGFHNYHHSFPYDYSASEYRWHINFTTFFIDCMAALGLAYDRKKVSKAAILARIKRTGDGNYKSG
chain 2: MDGPAEPQIPGLWDTYEDDISEISQKLPGEYFRYKGVPFPVGLYSLESISLAENTQDVRDDDIFIITYPKSGTTWMIEIICLILKEGDPSWIRSVPIWERAPWCETIVGAFSLPDQYSPRLMSSHLPIQIFTKAFFSSKAKVIYMGRNPRDVVVSLYHYSKIAGQLKDPGTPDQFLRDFLKGEVQFGSWFDHIKGWLRMKGKDNFLFITYEELQQDLQGSVERICGFLGRPLGKEALGSVVAHSTFSAMKANTMSNYTLLPPSLLDHRRGAFLRKGVCGDWKNHFTVAQSEAFDRAYRKQMRGMPTFPWDEDPEEDGSPDPEPSPEPEPKPSLEPNTSLEREPRPNSSPSPSPGQASETPHPRPS

Variants of: B1
Experiment: co-IP (IP: SCD1, IB: SULT2B1), band quantification; HCT116 cells; parent: 1; read off a plot

**Q.** Which ratio to parent does the source give for chain 1 S80F here?
**A.** ~0.4

**Q.** How did the ratio to parent turn out when chain 1 S80R was run?
**A.** ~0.35

**Q.** Which ratio to parent does the source give for chain 1 S80E here?
**A.** ~0.5

**Q.** Which ratio to parent does the source give for chain 1 F178G here?
**A.** ~2.6

**Q.** chain 1 F178A was tested. Which ratio to parent did it give?
**A.** ~2.4

**Q.** Which ratio to parent does the source give for chain 1 H83M here?
**A.** ~1.2
